Data on one variant can be found in IntAct's records for PubMed 24970085.

B1: Lysosome-associated membrane glycoprotein 1 (Homo sapiens), P11279 (parent)
chain: MAAPGSARRPLLLLLLLLLLGLMHCASAAMFMVKNGNGTACIMANFSAAFSVNYDTKSGPKNMTFDLPSDATVVLNRSSCGKENTSDPSLVIAFGRGHTLTLNFTRNATRYSVQLMSFVYNLSDTHLFPNASSKEIKTVESITDIRADIDKKYRCVSGTQVHMNNVTVTLHDATIQAYLSNSSFSRGETRCEQDRPSPTTAPPAPPSPSPSPVPKSPSVDKYNVSGTNGTCLLASMGLQLNLTYERKDNTTVTRLLNINPNKTSASGSCGAHLVTLELHSEGTTVLLFQFGMNASSSRFFLQGIQLNTILPDARDPAFKAANGSLRALQATVGNSYKCNAEEHVRVTKAFSVNIFKVWVQAFKVEGGQFGSVEECLLDENSMLIPIAVGGALAGLVLIVLIAYLVGRKRSHAGYQTI

In the experiment the parent is B1. As to conditions: with glyc_lassj GPC.
As to MAAPGSARRPLLLLLLLLLLGLMHCASAAMFMVKNGNGTACIMANFSAAFSVNYDTKSGPKNMTFDLPSDATVVLSRSSCGKENTSDPSLVIAFGRGHTLTLNFTRNATRYSVQLMSFVYNLSDTHLFPNASSKEIKTVESITDIRADIDKKYRCVSGTQVHMNNVTVTLHDATIQAYLSNSSFSRGETRCEQDRPSPTTAPPAPPSPSPSPVPKSPSVDKYNVSGTNGTCLLASMGLQLNLTYERKDNTTVTRLLNINPNKTSASGSCGAHLVTLELHSEGTTVLLFQFGMNASSSRFFLQGIQLNTILPDARDPAFKAANGSLRALQATVGNSYKCNAEEHVRVTKAFSVNIFKVWVQAFKVEGGQFGSVEECLLDENSMLIPIAVGGALAGLVLIVLIAYLVGRKRSHAGYQTI [N76S], the “effect of a mutation on the interaction” value is recorded as “disrupting interaction”.
